Laboratory results: publication PMC1326243 (Nucleic Acids Research, 2006)

B1: Bacillus subtilis LrpC (natural protein, B. subtilis, UniProt P96582 1-144, looked up)
chain: MKLDQIDLNIIEELKKDSRLSMRELGRKIKLSPPSVTERVRQLESFGIIKQYTLEVDQKKLGLPVSCIVEATVKNADYERFKSYIQTLPNIEFCYRIAGAACYMLKINAESLEAVEDFINKTSPYAQTVTHVIFSEIDTKNGRG
B2: B.subtilis RecU Holliday-junction resolvase (enzyme, B. subtilis, UniProt P39792 1-206, looked up)
chain: MIRYPNGKTFQPKHSVSSQNSQKRAPSYSNRGMTLEDDLNETNKYYLTNQIAVIHKKPTPVQIVNVHYPKRSAAVIKEAYFKQSSTTDYNGIYKGRYIDFEAKETKNKTSFPLQNFHDHQIEHMKQVKAQDGICFVIISAFDQVYFLEADKLFYFWDRKEKNGRKSIRKDELEETAYPISLGYAPRIDYISIIEQLYFSPSSGAKG

Target: the molecule itself
Assay: cross-linking

Protein	stoichiometry N
B1	≥ 2
B2	2
